# B1: TLP-ste: broad-specificity metalloprotease (thermolysin-like protease) produced by Bacillus stearothermophilus CU21, SEQUENCE ID No. 1 (protein)
# chain: VAGASTVGVGRGVLGDQKYINTTYSSYYGYYYLQDNTRGSGIFTYDGRNRTVLPGSLWTDGDNQFTASYDAAAVDAHYYAGVVYDYYKNVHGRLSYDGSNAAIRSTVHYGRGYNNAFWNGSQMVYGDGDGQTFLPFSGGIDVVGHELTHAVTDYTAGLVYQNESGAINEAMSDIFGTLVEFYANRNPDWEIGEDIYTPGVAGDALRSMSDPAKYGDPDHYSKRYTGTQDNGGVHTNSGIINKAAYLLSQGGVHYGVSVNGIGRDKMGKIFYRALVYYLTPTSNFSQLRAACVQAAADLYGSTSQEVNSVKQAFNAVGVY
# How the values were obtained:
# [1] = First order thermal inactivation of TLP-ste variants at 75° C. in 5 mM or 0.2 mM CaCl2
# [2] = assay type: physicochemical; conditions: buffer, pH 5.3
# Protocol: Stabilities of TLPs were determined at different temperatures. Shown are the first-order inactivation curves for TLP-ste incubated at 80° C. (Δ) and 90° C. (+), thermolysin at 90° C. (Δ), and the 8-fold mutant at 100° C. (●), respectively. […] Samples, taken at the various time points, were quickly cooled on ice (15 s) and transferred to 50° C. to prevent cold denaturation. Residual activity was determined using casein (0.8%) as a substrate in 50 mM TrisHCl (pH 7.5), 5 mM CaCl2 as described previously (Eijsink, V. G. H., Veltman, O. R., Aukema, W., Vriend, G. & Venema, G. Nature Struct. Biol. 2, 374-379 (1995)).
# casein [3] = experiment: Optimum temperature for activity with casein; assay type: biochemical; conditions: casein 0.8%, 30 minutes
# Protocol: (§1) Specific activities for TLP-ste and the 8-fold mutant were determined using casein (0.8%) as a substrate in 50 mM Tris-HCl (pH 7.5), 5 mM CaCl2 at 37° C. […] (pH 7.0), 5 mM CaCl2, 5% or 1% DMSO, 0.5% isopropanol, 0.01% Triton X-100, 50 mM NaCl, with […] of substrate, by measuring the decrease in absorption at 345 nm (Î345=−317 M^−1·cm^−1). Stock solutions of the furylacryloylated dipeptides, (Sigma, St. Louis, […].) were prepared by dissolving 3-(-2-furylacryloyl)-L-glycyl-L-leucine amide (FaGLa) and 3-(-2-furylacryloyl)-L-alanyl-L-phenylalanine amide (FaAFa) in DMSO. The kcat/Km ratios of the enzymes were determined by varying the enzyme concentrations (over a 50 fold range) under pseudo-first order conditions by measuring the initial activity, essentially according to the method described by Feder^30. The Ki for phosphoramidon (N-[a-L-rhamnopyrano-syl-oxyhydroxyphophinyl]-L-leucyl-L-tryptophan) was determined by a 30 minute preincubation of a 100 pM protease solution with varying concentrations of the inhibitor (10^−8 to 10^−3 M), in 50 mM MOPS (pH 7.0), 5 mM CaCl2, 50 mM NaCl, prior to the addition of the furylacryloated substrate. For determination of the Ki FaAFa was used as the substrate. Since the Km of the substrate for the enzyme is higher than the concentration used, IC50 values were taken to be equal to Ki values. The optimum temperature for activity was determined by incubating proteases with casein (0.8%) in 50 mM Tris-HCl (pH 7.5), 5 mM CaCl2, at different temperatures for 30 minutes, after which the amount of released peptides, indicative for activity, was measured^11.
# [4] = Thermal stability (T50) at varying CaCl2 concentrations
# Protocol: Thermal stability was measured, using varying CaCl2concentrations in the standard assay buffer (20 mM Na acetate, pH 5.3, 0.01% Triton X-100, 0.5% isopropanol, 62.5 mM NaCl). T50 is the temperature of incubation at which 50 percent of the initial proteolytic activity is lost during a 30 minutes incubation.
# casein [5] = experiment: Specific activity with casein as substrate at 37° C.; assay type: biochemical; conditions: casein 0.8%, pH 7.5, 5 mM CaCl2
# Protocol: as §1
# [6] = Effect of denaturing agents on protease activity (FaGLa, 50° C.); assay type: biochemical
# Protocol: Protease activities were determined in 50 mM MOPS (pH 7.0), 5 mM CaCl2, 50 mM NaCl, 0.01% Triton X-100, 0.5% isopropanol, using 100 μM FaGLa (3-(-2-furylacryloyl)-L-glycyl-L-leucine amide) as a substrate at 50° C. Enzymes and denaturing agents were preincubated in the reaction mixture at 50° C. for 15 minutes prior to the addition of the substrate. The reaction was followed by measuring the change in absorbance at 345 nm. […] Activities are expressed as percentage of the activity in the absence of denaturant.
# [7] = tested on: α-amylase from Bacillus licheniformis; experiment: Hydrolysis of protease resistant α-amylase (SDS-PAGE); assay type: biochemical; conditions: 60 minutes
# Protocol: As an example of the enzymatic activity of the 8-fold mutant we tested the hydrolysis of protease resistant α-amylase from Bacillus licheniformis by the 8-fold mutant. B. licheniformis α-amylase (1 mg/ml) in 50 mM MOPS, pH 7.0, 5 mM CaCl2, 0.01% Triton X-100 was incubated with purified TLP-ste (1 μg/ml), the 8-fold mutant or without protease for 60 minutes at the temperature indicated. The reaction volume was 500 μL. […] Precipitates (only observed in the 100° C. samples) were collected by centrifugation and redissolved in 500 μL 6 M Urea. Both supernatants and redissolved precipitates were subjected to standard SDS-PAGE, including pre-treatment with sample loading buffer (5 minutes at 100° C.). The samples were identical in size (20 μL supernatant and 20 μL dissolved precipitate). Gels were stained with Coomassie-brilliant blue.
molecule,measurement,setting,value
B1,Half-life ratio 5 mM/0.2 mM,[1],12
same,half-life 80° C.,[2],17.5 min
same,half-life 90° C.,[2],<2 min
same,half-life 100° C.,[2],<0.5 min
same,Topt (optimum temperature for activity),casein [3],74 °C
same,T50,"[4]; 0.2 mM CaCl2, 30 minutes incubation",65.5 °C
same,T50,"[4]; 0.5 mM CaCl2, 30 minutes incubation",67.5 °C
same,T50,"[4]; 2.5 mM CaCl2, 30 minutes incubation",72.9 °C
same,T50,"[4]; 5.0 mM CaCl2, 30 minutes incubation",75.2 °C
same,T50,"[4]; 7.5 mM CaCl2, 30 minutes incubation",77.0 °C
same,T50,"[4]; 12.5 mM CaCl2, 30 minutes incubation",77.9 °C
same,Specific activity casein,casein [5],3.5 ± 0.7 (U/mg) × 10^−3
same,relative activity,[6]; GndHCl 0 M,100%
same,relative activity,[6]; GndHCl 1.0 M,99%
same,relative activity,[6]; GndHCl 2.0 M,62%
same,relative activity,[6]; GndHCl 3.0 M,0%
same,relative activity,[6]; GndHCl 4.0 M,0%
same,relative activity,[6]; GndHCl 5.0 M,0%
same,relative activity,[6]; GndHCl 5.5 M,0%
same,relative activity,[6]; GndHCl 6.0 M,0%
same,relative activity,[6]; SDS 0 % w/v,100%
same,relative activity,[6]; SDS 0.25 % w/v,72%
same,relative activity,[6]; SDS 0.5 % w/v,37%
same,relative activity,[6]; SDS 0.75 % w/v,9.6%
same,relative activity,[6]; SDS 1.0 % w/v,0%
same,relative activity,[6]; SDS 1.25 % w/v,0%
same,relative activity,[6]; SDS 1.5 % w/v,0%
same,relative activity,[6]; SDS 2.0 % w/v,0%
same,relative activity,[6]; Urea 0 M,100%
same,relative activity,[6]; Urea 0.5 M,96%
same,relative activity,[6]; Urea 1.0 M,87%
same,relative activity,[6]; Urea 2.0 M,75%
same,relative activity,[6]; Urea 3.0 M,3%
same,relative activity,[6]; Urea 4.0 M,0%
same,relative activity,[6]; Urea 5.0 M,0%
same,relative activity,[6]; Urea 7.5 M,0%
same,degradation of B. licheniformis α-amylase,[7]; 80° C. and lower,No significant degradation
same,hydrolysis of B. licheniformis α-amylase,[7]; 100° C.,no hydrolysis had occurred
